Residue numbers refer to the chain shown, from its start. Names and notes keep the numbering of the source.
B1: Ipilimumab L54 Arg to Cys (antibody, V domains shown)
VH: QVQLVESGGGVVQPGRSLRLSCAASGFTFSSYTMHWVRQAPGKGLEWVTFISYDGNNKYYADSVKGRFTISRDNSKNTLYLQMNSLRAEDTAIYYCARTGWLGPFDYWGQGTLVTVSS
VL: not shown
modifications: chain 2 pos 55 (Kabat L54): introduced Cys carries R4-26 (or S47, 40 kD PEG linker) on its thiol, written C
B2: Ipilimumab L32 Tyr to Cys (antibody, V domains shown)
VH: B1 VH
VL: not shown
modifications: chain 2 pos 33 (Kabat L32): introduced Cys carrying the conjugated group of the row (R4-7, R4-8 or S47), written C
B3: anti-CTLA-4 antibody light chain A35C-R4-1 (antibody, human IgG1, kappa, V domains shown)
VH: B1 VH
VL: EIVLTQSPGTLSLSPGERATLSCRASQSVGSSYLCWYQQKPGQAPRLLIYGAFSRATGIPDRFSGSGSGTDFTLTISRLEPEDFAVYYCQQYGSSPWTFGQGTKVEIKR
modifications: R4-1 on Cys 35
B4: anti-CTLA-4 antibody light chain G58C-R4-1 (antibody, human IgG1, kappa, V domains shown)
VH: B1 VH
VL: not shown
modifications: R4-1 on Cys 58
B5: anti-CTLA-4 antibody light chain G30C-R4-1 (antibody, human IgG1, kappa, V domains shown)
VH: B1 VH
VL: not shown
modifications: R4-1 on Cys 30
B6: anti-CTLA-4 antibody light chain G93C-R4-1 (antibody, human IgG1, kappa, V domains shown)
VH: B1 VH
VL: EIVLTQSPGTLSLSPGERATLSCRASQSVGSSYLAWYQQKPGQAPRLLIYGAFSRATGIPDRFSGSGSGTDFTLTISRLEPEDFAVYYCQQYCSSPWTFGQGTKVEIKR
modifications: R4-1 on Cys 93
B7: anti-CTLA-4 antibody light chain S31C-R4-1 (antibody, human IgG1, kappa, V domains shown)
VH: B1 VH
VL: not shown
modifications: R4-1 on Cys 31
B8: anti-CTLA-4 antibody light chain S32C-R4-1 (antibody, human IgG1, kappa, V domains shown)
VH: B1 VH
VL: not shown
modifications: R4-1 on Cys 32
B9: anti-CTLA-4 antibody light chain T98C-R4-1 (antibody, human IgG1, kappa, V domains shown)
VH: B1 VH
VL: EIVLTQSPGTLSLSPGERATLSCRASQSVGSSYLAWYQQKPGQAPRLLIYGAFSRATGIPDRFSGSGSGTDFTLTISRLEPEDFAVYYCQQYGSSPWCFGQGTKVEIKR
modifications: R4-1 on Cys 98
B10: anti-CTLA-4 antibody light chain S54C-R4-1 (antibody, human IgG1, kappa, V domains shown)
VH: B1 VH
VL: not shown
modifications: R4-1 on Cys 54
B11: anti-CTLA-4 antibody light chain S95C-R4-1 (antibody, human IgG1, kappa, V domains shown)
VH: B1 VH
VL: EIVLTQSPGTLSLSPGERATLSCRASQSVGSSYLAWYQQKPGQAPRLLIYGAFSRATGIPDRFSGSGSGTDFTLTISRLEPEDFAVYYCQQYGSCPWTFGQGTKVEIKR
modifications: R4-1 on Cys 95
B12: anti-PD-1 antibody 1 light chain T101C (antibody, human IgG4 S228P, kappa, V domains shown)
VH: QVQLVQSGVEVKKPGASVKVSCKASGYTFTNYYMYWVRQAPGQGLEWMGGINPSNGGTNFNEKFKNRVTLTTDSSTTTAYMELKSLQFDDTAVYYCARRDYRFDMGFDYWGQGTTVTVSS
VL: EIVLTQSPATLSLSPGERATLSCRASKGVSTSGYSYLHWYQQKPGQAPRLLIYLASYLESGVPARFSGSGSGTDFTLTISSLEPEDFAVYYCQHSRDLPLCFGGGTKVEIKR
B13: anti-PD-1 antibody 1 light chain A25C (antibody, human IgG4 S228P, kappa, V domains shown)
VH: B12 VH
VL: B12 VL with A25C, C101T
B14: anti-PD-1 antibody 1 light chain L54C (antibody, human IgG4 S228P, kappa, V domains shown)
VH: B12 VH
VL: B12 VL with L54C, C101T
B15: anti-PD-1 antibody 1 light chain A55C (antibody, human IgG4 S228P, kappa, V domains shown)
VH: B12 VH
VL: B12 VL with A55C, C101T
B16: anti-PD-1 antibody 1 light chain L37C (antibody, human IgG4 S228P, kappa, V domains shown)
VH: B12 VH
VL: B12 VL with L37C, C101T
B17: anti-PD-1 antibody 1 light chain T31C (antibody, human IgG4 S228P, kappa, V domains shown)
VH: B12 VH
VL: B12 VL with T31C, C101T
B18: anti-PD-1 antibody 2 light chain A25C (antibody, human IgG4 S228P, kappa, V domains shown)
VH: QVQLVESGGGVVQPGRSLRLDCKASGITFSNSGMHWVRQAPGKGLEWVAVIWYDGSKRYYADSVKGRFTISRDNSKNTLFLQMNSLRAEDTAVYYCATNDDYWGQGTLVTVSS
VL: EIVLTQSPATLSLSPGERATLSCRCSQSVSSYLAWYQQKPGQAPRLLIYDASNRATGIPARFSGSGSGTDFTLTISSLEPEDFAVYYCQQSSNWPRTFGQGTKVEIKR
B19: anti-PD-1 antibody 2 light chain I58C (antibody, human IgG4 S228P, kappa, V domains shown)
VH: B18 VH
VL: B18 VL with C25A, I58C
B20: anti-PD-1 antibody 2 light chain A51C (antibody, human IgG4 S228P, kappa, V domains shown)
VH: B18 VH
VL: B18 VL with C25A, A51C
B21: anti-PD-1 antibody 2 light chain A55C (antibody, human IgG4 S228P, kappa, V domains shown)
VH: B18 VH
VL: B18 VL with C25A, A55C
B22: anti-PD-1 antibody 2 light chain A60C (antibody, human IgG4 S228P, kappa, V domains shown)
VH: B18 VH
VL: B18 VL with C25A, A60C
B23: anti-CTLA-4 antibody light chain S32C (antibody, human IgG1, kappa, V domains shown)
VH: B1 VH
VL: not shown
B24: anti-CTLA-4 antibody light chain S26C (antibody, human IgG1, kappa, V domains shown)
VH: B1 VH
VL: not shown
notes: also called CTLA-4-Ser26Cys
B25: anti-CTLA-4 antibody light chain G51C (antibody, human IgG1, kappa, V domains shown)
VH: B1 VH
VL: not shown
B26: anti-CTLA-4 antibody light chain G93C (antibody, human IgG1, kappa, V domains shown)
VH: B1 VH
VL: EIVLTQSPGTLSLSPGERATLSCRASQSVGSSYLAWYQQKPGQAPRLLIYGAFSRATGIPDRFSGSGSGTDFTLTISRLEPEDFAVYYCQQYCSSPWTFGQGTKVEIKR
B27: anti-CTLA-4 antibody light chain T57C (antibody, human IgG1, kappa, V domains shown)
VH: B1 VH
VL: not shown
B28: anti-CTLA-4 antibody light chain S94C (antibody, human IgG1, kappa, V domains shown)
VH: B1 VH
VL: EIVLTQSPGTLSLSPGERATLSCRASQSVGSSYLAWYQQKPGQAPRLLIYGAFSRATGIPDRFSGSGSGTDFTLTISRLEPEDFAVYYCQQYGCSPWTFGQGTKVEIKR
B29: anti-CTLA-4 antibody light chain G58C (antibody, human IgG1, kappa, V domains shown)
VH: B1 VH
VL: not shown
B30: anti-CTLA-4 antibody light chain S31C (antibody, human IgG1, kappa, V domains shown)
VH: B1 VH
VL: not shown
B31: anti-CTLA-4 antibody light chain S54C (antibody, human IgG1, kappa, V domains shown)
VH: B1 VH
VL: not shown
B32: anti-CTLA-4 antibody light chain S95C (antibody, human IgG1, kappa, V domains shown)
VH: B1 VH
VL: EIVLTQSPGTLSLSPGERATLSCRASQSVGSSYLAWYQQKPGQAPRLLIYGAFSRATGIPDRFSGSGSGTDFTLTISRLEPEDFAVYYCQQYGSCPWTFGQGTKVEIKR
B33: anti-CTLA-4 antibody light chain S28C (antibody, human IgG1, kappa, V domains shown)
VH: B1 VH
VL: not shown
B34: anti-PD-1 antibody 1 heavy chain K65C (antibody, human IgG4 S228P, kappa, V domains shown)
VH: B12 VH with K65C
VL: B12 VL with C101T
B35: anti-PD-1 antibody 1 heavy chain Y32C (antibody, human IgG4 S228P, kappa, V domains shown)
VH: B12 VH with Y32C
VL: B12 VL with C101T
B36: anti-PD-1 antibody 2 heavy chain K57C (antibody, human IgG4 S228P, kappa, V domains shown)
VH: B18 VH with K57C
VL: B18 VL with C25A
B37: anti-PD-1 antibody 2 heavy chain Y53C (antibody, human IgG4 S228P, kappa, V domains shown)
VH: B18 VH with Y53C
VL: B18 VL with C25A
B38: anti-PD-1 antibody 2 heavy chain D62C (antibody, human IgG4 S228P, kappa, V domains shown)
VH: B18 VH with D62C
VL: B18 VL with C25A
B39: anti-PD-1 antibody 2 heavy chain K65C (antibody, human IgG4 S228P, kappa, V domains shown)
VH: B18 VH with K65C
VL: B18 VL with C25A
B40: anti-PD-1 antibody 2 heavy chain Y60C (antibody, human IgG4 S228P, kappa, V domains shown)
VH: B18 VH with Y60C
VL: B18 VL with C25A
B41: anti-PD-1 antibody 2 heavy chain Y59C (antibody, human IgG4 S228P, kappa, V domains shown)
VH: B18 VH with Y59C
VL: B18 VL with C25A

These binders were tested against T1, CTLA-4 (UniProt P16410 36-162, limits assumed) (assay: ELISA; S47 on the Cys).
T1 construct: also called CTLA-4 protein
T1 sequence (P16410 36-162 limits assumed): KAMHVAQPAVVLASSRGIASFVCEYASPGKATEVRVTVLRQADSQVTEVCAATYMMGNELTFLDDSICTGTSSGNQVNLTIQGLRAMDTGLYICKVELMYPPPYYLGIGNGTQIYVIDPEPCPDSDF
In the case of B1, the “Activity after S47 (40 kD) blocking” value is reported as 17%. B2 was tested, and the “Activity after S47 (40 kD) blocking” value was 13%.

Each binder was assayed against T2, CTLA-4 (UniProt P16410 36-162, limits assumed) (assay: ELISA, conjugate vs WT antibody).
T2 sequence (P16410 36-162 limits assumed): as above
B3 was tested, and the “binding activity (% of WT)” value was 91.5%. For B4, the “binding activity (% of WT)” value was 88.1%. For B5, the “binding activity (% of WT)” value was 95.3%. In the case of B6, the “binding activity (% of WT)” value is reported as 99.1%. With B7 the “binding activity (% of WT)” value was 80.9%. For B8, the “binding activity (% of WT)” value was 99%. For B9, the “binding activity (% of WT)” value was 91%. For B10, the “binding activity (% of WT)” value was 97.7%. With B11 the “binding activity (% of WT)” value was 95.4%.

These binders were tested against T3, PD-1 (UniProt Q15116 25-167, limits assumed) (assay: ELISA, OD mutant/OD WT; B=70-90%).
T3 sequence (Q15116 25-167 limits assumed): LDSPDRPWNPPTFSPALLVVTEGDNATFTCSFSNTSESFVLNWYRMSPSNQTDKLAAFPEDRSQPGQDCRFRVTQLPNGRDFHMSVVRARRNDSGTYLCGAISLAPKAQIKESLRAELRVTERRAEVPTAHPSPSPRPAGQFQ
With B12 the “binding activity (OD after mutation/OD wild type)” value was 70 to 90%. B13 was tested, and the “binding activity (OD after mutation/OD wild type)” value was 70 to 90%. In the case of B14, the “binding activity (OD after mutation/OD wild type)” value is reported as 70 to 90%. B15 was tested, and the “binding activity (OD after mutation/OD wild type)” value was 70 to 90%. With B16 the “binding activity (OD after mutation/OD wild type)” value was 70 to 90%. In the case of B17, the “binding activity (OD after mutation/OD wild type)” value is reported as 70 to 90%. B18 was tested, and the “binding activity (OD after mutation/OD wild type)” value was 70 to 90%. B19 was tested, and the “binding activity (OD after mutation/OD wild type)” value was 70 to 90%. With B20 the “binding activity (OD after mutation/OD wild type)” value was 70 to 90%. For B21, the “binding activity (OD after mutation/OD wild type)” value was 70 to 90%. With B22 the “binding activity (OD after mutation/OD wild type)” value was 70 to 90%.

These binders were tested against T2, CTLA-4 (assay: ELISA, OD mutant/OD WT; A=90-110%).
In the case of B23, the “binding activity (OD after mutation/OD wild type)” value is reported as 90 to 110%. In the case of B24, the “binding activity (OD after mutation/OD wild type)” value is reported as 90 to 110%. In the case of B25, the “binding activity (OD after mutation/OD wild type)” value is reported as 90 to 110%. For B26, the “binding activity (OD after mutation/OD wild type)” value was 90 to 110%. For B27, the “binding activity (OD after mutation/OD wild type)” value was 90 to 110%. B28 was tested, and the “binding activity (OD after mutation/OD wild type)” value was 90 to 110%. In the case of B29, the “binding activity (OD after mutation/OD wild type)” value is reported as 90 to 110%. In the case of B30, the “binding activity (OD after mutation/OD wild type)” value is reported as 90 to 110%. With B31 the “binding activity (OD after mutation/OD wild type)” value was 90 to 110%. In the case of B32, the “binding activity (OD after mutation/OD wild type)” value is reported as 90 to 110%. B33 was tested, and the “binding activity (OD after mutation/OD wild type)” value was 90 to 110%.

Each binder was assayed against T3, PD-1 (assay: ELISA, OD mutant/OD WT; ↓=less than 70%).
B34 was tested, and the “binding activity vs wild type” value was under 70%. B35 was tested, and the “binding activity vs wild type” value was under 70%. B36 was tested, and the “binding activity vs wild type” value was under 70%. B37 was tested, and the “binding activity vs wild type” value was under 70%. With B38 the “binding activity vs wild type” value was under 70%. In the case of B39, the “binding activity vs wild type” value is reported as under 70%. For B40, the “binding activity vs wild type” value was under 70%. In the case of B41, the “binding activity vs wild type” value is reported as under 70%.
